Target: T1, His-tagged VPS18 RING domain (residues 842–973) (human, UniProt Q9P253 842-973)
T1 construct: Vector pOPTnH; monomeric by SEC-MALS; also called VPS18 RING H6; VPS18H6; source: E. coli Rosetta2(DE3) pLysS, purified (Ni-NTA, SEC); not shown: LysHis6, C-terminal, kept
T1 sequence (looked up): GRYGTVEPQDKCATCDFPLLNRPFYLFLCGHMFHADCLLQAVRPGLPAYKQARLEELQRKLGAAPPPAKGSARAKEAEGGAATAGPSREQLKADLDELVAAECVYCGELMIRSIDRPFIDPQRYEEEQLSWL
Assay: SEC-MALS; Superdex 75 10/300, room temperature, 20 mM Tris (pH 7.5), 150 mM NaCl, 0.5 mM EDTA; complex formed from 0.48 mg/ml VPS41 RING and 0.68 mg/ml VPS18 RING H6 on ice for 15 min
Conditions: both partners purified

stoichiometry N: 1
B1: tag-free VPS41 RING domain (residues 778–854) (domain or fragment, human, UniProt P49754 778-854, looked up)
chain: TQMKGVLVDEENICESCLSPILPSDAAKPFSVVVFHCRHMFHKECLPMPSMNSAAQFCNICSAKNRGPGSAILEMKK
notes: monomeric by SEC-MALS; also called untagged VPS41 RING; not shown: GST, N-terminal, cleaved

From publication PMC5651818, “VPS18 recruits VPS41 to the human HOPS complex via a RING–RING interaction” (Biochemical Journal, 2017)
